# Measured values: publication PMC3272482
# Where “and” joins values, the source holds several entries; their conditions need not be identical. Identical values can stand only once. Like-named read-outs stand apart in the source and are kept apart here.
# Assays:
# Assay in all cases: cryo-EM structure
# [1] = molecular target: Escherichia coli DegQ, protease deficient S187A mutant (Escherichia coli) (UniProt P39099)
# [2] = molecular target: Escherichia coli DegQ, protease deficient S187A mutant (Escherichia coli) (UniProt P39099); remark: listed apart in the source
# [3] = molecular target: Escherichia coli DegQ, protease deficient S187A mutant (Escherichia coli) (UniProt P39099); remark: listed apart in the source
substance,measurement,setting,value
"Escherichia coli DegQ, protease deficient S187A mutant (from UniProt P39099 28-455) (enzyme)",stoichiometry N,[1],12 protomers
same,stoichiometry N,[2],12 protomers
same,stoichiometry N,[3],24 protomers and 12 protomers
